Results from the supplement of paper PMC9112550, “Optimization of the antimicrobial peptide Bac7 by deep mutational scanning” (BMC Biology, 2022).

Test system: Escherichia coli TOP10
Assay: shrunken log2 fold change of peptide-encoding DNA abundance (4.5 h post-induction vs induction); higher = less antimicrobial activity (less host growth inhibition)
Settings: time post-induction: 4.5 h; library: site-saturation at positions 5, 18, 19, 20
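Also: peptides expressed intracellularly from a pBAD plasmid library in pooled LB shake-flask culture, induced with 0.3% L-arabinose, DNA abundance read by NGS, three biological replicates, DESeq2 with apeglm shrinkage.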

Sequence | shrunken log2 fold change
RRIRERPPRLPRPRPRPTYLPRP | -0.178
RRIRLRPPRLPRPRPRPQEHPRP | -0.167
RRIRLRPPRLPRPRPRPIHNPRP | -1.05
RRIRMRPPRLPRPRPRPTFYPRP | -0.157
RRIRKRPPRLPRPRPRPRSHPRP | 0.38
RRIRKRPPRLPRPRPRPIYHPRP | -0.472
RRIRNRPPRLPRPRPRPYVKPRP | -0.626
RRIRARPPRLPRPRPRPSHLPRP | -0.41
RRIRARPPRLPRPRPRPEQGPRP | 0.388
RRIRYRPPRLPRPRPRPLIFPRP | -1.08
RRIRSRPPRLPRPRPRPHTSPRP | -0.445
RRIRPRPPRLPRPRPRPEVAPRP | 0.212
RRIRDRPPRLPRPRPRPDVSPRP | -0.00965
RRIRDRPPRLPRPRPRPMYDPRP | -0.208
RRIRARPPRLPRPRPRPWWFPRP | 0.049
RRIRDRPPRLPRPRPRPFWRPRP | 0.0187
RRIRLRPPRLPRPRPRPSIRPRP | -0.727
RRIRIRPPRLPRPRPRPWNRPRP | 0.000744
RRIRFRPPRLPRPRPRPTTTPRP | 0.212
RRIRPRPPRLPRPRPRPVSLPRP | -0.104
RRIRIRPPRLPRPRPRPSCRPRP | -0.644
RRIRTRPPRLPRPRPRPEHQPRP | 0.127
RRIRYRPPRLPRPRPRPPDEPRP | 0.0398
RRIRWRPPRLPRPRPRPTPSPRP | 0.564
RRIRERPPRLPRPRPRPTQHPRP | 0.239

Sequence | shrunken log2 fold change
RRIRPRPPRLPRPRPRPFQDPRP | -0.0806
RRIRDRPPRLPRPRPRPKDYPRP | -0.192
RRIRHRPPRLPRPRPRPFLNPRP | -0.169
RRIRSRPPRLPRPRPRPVPNPRP | 0.105
RRIRRRPPRLPRPRPRPVWFPRP | 0.0857
RRIRPRPPRLPRPRPRPYNMPRP | -1.44
RRIRIRPPRLPRPRPRPDPSPRP | -0.0293
RRIRPRPPRLPRPRPRPYHTPRP | -1.66
RRIRGRPPRLPRPRPRPDFDPRP | 0.612
RRIRQRPPRLPRPRPRPDKPPRP | -0.214
RRIRMRPPRLPRPRPRPELIPRP | 3.16
RRIRVRPPRLPRPRPRPRAWPRP | 0.086
RRIRPRPPRLPRPRPRPYSAPRP | -1.14
RRIRNRPPRLPRPRPRPKFYPRP | -0.83
RRIRKRPPRLPRPRPRPLSDPRP | 0.22
RRIRMRPPRLPRPRPRPEFEPRP | -0.0141
RRIRMRPPRLPRPRPRPRAMPRP | 1.42
RRIRHRPPRLPRPRPRPSWNPRP | -0.264
RRIRHRPPRLPRPRPRPNHAPRP | -0.223
RRIRSRPPRLPRPRPRPQFYPRP | -0.769
RRIRCRPPRLPRPRPRPNNTPRP | -0.737
RRIRTRPPRLPRPRPRPVGSPRP | -0.243
RRIRTRPPRLPRPRPRPRKLPRP | -0.073
RRIRSRPPRLPRPRPRPSCFPRP | -0.197
RRIRQRPPRLPRPRPRPDWQPRP | 0.0854

Sequence | shrunken log2 fold change
RRIRCRPPRLPRPRPRPQASPRP | -0.000207
RRIRCRPPRLPRPRPRPGLIPRP | 4.01e-05
RRIRTRPPRLPRPRPRPPLWPRP | 0.689
RRIRERPPRLPRPRPRPWPEPRP | -0.0215
RRIRRRPPRLPRPRPRPSPDPRP | 0.608
RRIRHRPPRLPRPRPRPRPTPRP | 0.759
RRIRGRPPRLPRPRPRPREHPRP | 0.783
RRIRQRPPRLPRPRPRPPYPPRP | -0.0407
RRIRWRPPRLPRPRPRPHGKPRP | 0.00196
RRIRKRPPRLPRPRPRPSGVPRP | 0.005
RRIRLRPPRLPRPRPRPVIGPRP | -0.173
RRIRERPPRLPRPRPRPLMEPRP | 0.0296
RRIRHRPPRLPRPRPRPDGDPRP | 0.0106
RRIRKRPPRLPRPRPRPIWTPRP | -0.00674
RRIRIRPPRLPRPRPRPQPIPRP | -0.00642
RRIRHRPPRLPRPRPRPAIVPRP | -0.167
RRIRKRPPRLPRPRPRPSRHPRP | 0.0967
RRIRKRPPRLPRPRPRPLGAPRP | 0.58
RRIRCRPPRLPRPRPRPMWRPRP | 0.276
RRIRVRPPRLPRPRPRPGFSPRP | -0.101
RRIRYRPPRLPRPRPRPQMLPRP | -0.846
RRIRTRPPRLPRPRPRPVFTPRP | -0.105
RRIRFRPPRLPRPRPRPVMYPRP | -0.195
RRIRYRPPRLPRPRPRPWWDPRP | -0.266
RRIRDRPPRLPRPRPRPFIRPRP | -0.29

Sequence | shrunken log2 fold change
RRIRQRPPRLPRPRPRPNQEPRP | -0.0578
RRIRERPPRLPRPRPRPYVYPRP | -0.296
RRIRYRPPRLPRPRPRPDCAPRP | -0.218
RRIRYRPPRLPRPRPRPNHKPRP | -1.3
RRIRWRPPRLPRPRPRPVCYPRP | 0.028
RRIRDRPPRLPRPRPRPCHAPRP | -0.0662
RRIRIRPPRLPRPRPRPFCPPRP | -0.463
RRIRTRPPRLPRPRPRPCHHPRP | -0.0688
RRIRYRPPRLPRPRPRPVIAPRP | -0.354
RRIRERPPRLPRPRPRPTLGPRP | 0.0905
RRIRVRPPRLPRPRPRPKSVPRP | -0.00455
RRIRARPPRLPRPRPRPLIHPRP | -0.117
RRIRMRPPRLPRPRPRPYLVPRP | -0.016
RRIRNRPPRLPRPRPRPYFPPRP | -0.143
RRIRARPPRLPRPRPRPWNRPRP | -0.0462
RRIRHRPPRLPRPRPRPNAFPRP | -0.14
RRIRSRPPRLPRPRPRPDARPRP | 0.1
RRIRPRPPRLPRPRPRPNCSPRP | -0.132
RRIRMRPPRLPRPRPRPPYRPRP | 0.00408
RRIRRRPPRLPRPRPRPFIWPRP | 0.0601
RRIRRRPPRLPRPRPRPMFPPRP | 0.118
RRIRERPPRLPRPRPRPEGNPRP | 0.00934
RRIRPRPPRLPRPRPRPHHPPRP | -0.224
RRIRHRPPRLPRPRPRPAHAPRP | -0.0771
RRIRSRPPRLPRPRPRPRFPPRP | 0.198

Sequence | shrunken log2 fold change
RRIRKRPPRLPRPRPRPYYVPRP | -0.197
RRIRIRPPRLPRPRPRPFACPRP | -0.0925
RRIRLRPPRLPRPRPRPGWRPRP | 0.317
RRIRHRPPRLPRPRPRPWGPPRP | -0.0071
RRIRWRPPRLPRPRPRPLMIPRP | -0.304
RRIRNRPPRLPRPRPRPYWVPRP | -0.134
RRIRKRPPRLPRPRPRPQWLPRP | 0.0628
RRIRFRPPRLPRPRPRPSQHPRP | -0.612
RRIRRRPPRLPRPRPRPQKIPRP | 0.0999
RRIRPRPPRLPRPRPRPMHQPRP | 0.059
RRIRERPPRLPRPRPRPKSKPRP | -0.19
RRIRHRPPRLPRPRPRPPTAPRP | 0.212
RRIRYRPPRLPRPRPRPDQDPRP | -0.0701
RRIRDRPPRLPRPRPRPCNMPRP | -0.225
RRIRWRPPRLPRPRPRPSEMPRP | -0.148
RRIRFRPPRLPRPRPRPQKVPRP | -0.194
RRIRRRPPRLPRPRPRPNTPPRP | 0.0411
RRIRMRPPRLPRPRPRPALDPRP | 0.94
RRIRRRPPRLPRPRPRPTEYPRP | 0.0398
RRIRWRPPRLPRPRPRPAAYPRP | 0.346
RRIRMRPPRLPRPRPRPNLKPRP | 0.158
RRIRWRPPRLPRPRPRPFYRPRP | -0.179
RRIRKRPPRLPRPRPRPQWHPRP | 0.104
RRIRGRPPRLPRPRPRPEWKPRP | 1.3
RRIRQRPPRLPRPRPRPNTHPRP | -0.203
